Assay results taken from paper PMC9947773, “Modeling C3 glomerulopathies: C3 convertase regulation on an extracellular matrix surface” (Frontiers in Immunology, 2022).

Target: T1, C3b (human, UniProt P01024 23-667; P01024 749-1663)
T1 construct: complement C3, human; beta chain of C3b; alpha' chain of C3b (alpha chain without C3a); Coated on MaxGel (ECM) in microtiter wells at 130 ug/ml; also called purified C3b; source: bought: Complement Technology Inc., purified
Test: C3 convertase formation assay (C3CFA), elution and western blot for Bb; C3b coated on MaxGel; FB + FD with Factor H or a Factor H variant as reactant (22.5 ug/ml), 10 min at 37°C; washed x3; eluted
Conditions: both partners purified

T1 sequence (P01024 23-667, chain 1 of 2): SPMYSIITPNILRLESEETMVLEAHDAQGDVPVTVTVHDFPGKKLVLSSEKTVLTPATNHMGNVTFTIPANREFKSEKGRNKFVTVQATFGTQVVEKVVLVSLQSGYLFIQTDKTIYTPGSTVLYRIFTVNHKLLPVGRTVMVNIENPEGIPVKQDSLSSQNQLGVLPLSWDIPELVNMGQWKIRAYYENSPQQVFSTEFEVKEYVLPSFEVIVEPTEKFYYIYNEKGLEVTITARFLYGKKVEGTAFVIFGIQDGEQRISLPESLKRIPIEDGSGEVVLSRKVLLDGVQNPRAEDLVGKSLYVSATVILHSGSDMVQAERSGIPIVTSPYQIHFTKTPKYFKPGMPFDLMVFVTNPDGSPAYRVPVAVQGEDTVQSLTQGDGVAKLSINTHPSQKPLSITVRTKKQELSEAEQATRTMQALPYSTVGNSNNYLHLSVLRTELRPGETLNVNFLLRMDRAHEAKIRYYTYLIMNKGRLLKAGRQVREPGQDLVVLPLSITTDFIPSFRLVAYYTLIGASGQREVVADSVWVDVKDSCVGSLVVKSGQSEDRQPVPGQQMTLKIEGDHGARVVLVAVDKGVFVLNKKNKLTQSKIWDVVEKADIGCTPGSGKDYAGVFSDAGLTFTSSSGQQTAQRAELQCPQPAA
T1 sequence (P01024 749-1663, chain 2 of 2): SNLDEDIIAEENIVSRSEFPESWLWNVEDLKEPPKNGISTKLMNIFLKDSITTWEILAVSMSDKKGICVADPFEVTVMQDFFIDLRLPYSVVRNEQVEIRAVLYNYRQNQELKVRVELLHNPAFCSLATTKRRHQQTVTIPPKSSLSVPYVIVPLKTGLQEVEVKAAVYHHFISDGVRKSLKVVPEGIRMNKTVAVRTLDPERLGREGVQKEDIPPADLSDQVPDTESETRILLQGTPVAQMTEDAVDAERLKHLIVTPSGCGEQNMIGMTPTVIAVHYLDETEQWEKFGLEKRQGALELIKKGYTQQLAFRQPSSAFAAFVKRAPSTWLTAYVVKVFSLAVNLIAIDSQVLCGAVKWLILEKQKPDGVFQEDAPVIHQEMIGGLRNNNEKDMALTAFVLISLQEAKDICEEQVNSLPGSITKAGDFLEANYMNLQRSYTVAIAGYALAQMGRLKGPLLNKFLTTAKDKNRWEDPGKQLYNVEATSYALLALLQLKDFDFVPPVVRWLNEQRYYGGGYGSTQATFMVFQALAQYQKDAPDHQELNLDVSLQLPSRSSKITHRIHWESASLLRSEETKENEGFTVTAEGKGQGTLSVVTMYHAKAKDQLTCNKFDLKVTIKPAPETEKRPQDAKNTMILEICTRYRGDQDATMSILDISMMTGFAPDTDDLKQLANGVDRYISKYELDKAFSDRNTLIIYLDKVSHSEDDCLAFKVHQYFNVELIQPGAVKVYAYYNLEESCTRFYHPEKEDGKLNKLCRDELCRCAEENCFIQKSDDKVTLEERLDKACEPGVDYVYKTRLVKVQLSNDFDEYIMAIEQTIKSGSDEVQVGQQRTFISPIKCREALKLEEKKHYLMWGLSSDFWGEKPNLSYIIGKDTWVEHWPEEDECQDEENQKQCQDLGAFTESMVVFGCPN

binding result: binds
B1: Factor H (natural protein, human, UniProt P08603 19-1231, looked up)
chain: EDCNELPPRRNTEILTGSWSDQTYPEGTQAIYKCRPGYRSLGNVIMVCRKGEWVALNPLRKCQKRPCGHPGDTPFGTFTLTGGNVFEYGVKAVYTCNEGYQLLGEINYRECDTDGWTNDIPICEVVKCLPVTAPENGKIVSSAMEPDREYHFGQAVRFVCNSGYKIEGDEEMHCSDDGFWSKEKPKCVEISCKSPDVINGSPISQKIIYKENERFQYKCNMGYEYSERGDAVCTESGWRPLPSCEEKSCDNPYIPNGDYSPLRIKHRTGDEITYQCRNGFYPATRGNTAKCTSTGWIPAPRCTLKPCDYPDIKHGGLYHENMRRPYFPVAVGKYYSYYCDEHFETPSGSYWDHIHCTQDGWSPAVPCLRKCYFPYLENGYNQNYGRKFVQGKSIDVACHPGYALPKAQTTVTCMENGWSPTPRCIRVKTCSKSSIDIENGFISESQYTYALKEKAKYQCKLGYVTADGETSGSITCGKDGWSAQPTCIKSCDIPVFMNARTKNDFTWFKLNDTLDYECHDGYESNTGSTTGSIVCGYNGWSDLPICYERECELPKIDVHLVPDRKKDQYKVGEVLKFSCKPGFTIVGPNSVQCYHFGLSPDLPICKEQVQSCGPPPELLNGNVKEKTKEEYGHSEVVEYYCNPRFLMKGPNKIQCVDGEWTTLPVCIVEESTCGDIPELEHGWAQLSSPPYYYGDSVEFNCSESFTMIGHRSITCIHGVWTQLPQCVAIDKLKKCKSSNLIILEEHLKNKKEFDHNSNIRYRCRGKEGWIHTVCINGRWDPEVNCSMAQIQLCPPPPQIPNSHNMTTTLNYRDGEKVSVLCQENYLIQEGEEITCKDGRWQSIPLCVEKIPCSQPPQIEHGTINSSRSSQESYAHGTKLSYTCEGGFRISEENETTCYMGKWSSPPQCEGLPCKSPPEISHGVVAHMSDSYQYGEEVTYKCFEGFGIDGPAIAKCLGEKWSHPPSCIKTDCLSLPSFENAIPMGEKKDVYKAGEQVTYTCATYYKMDGASNVTCINSRWTGRPTCRDTSCVNPPTVQNAYIVSRQMSKYPSGERVRYQCRSPYEMFGDEEVMCLNGNWTEPPQCKDSTGKCGPPPPIDNGDITSFPLSVYAPASSVEYQCQNLYQLEGNKRITCRNGQWSEPPKCLHPCVISREIMENYNIALRWTAKQKLYSRTGESVEFVCKRGYRLSSRSHTLRTTCWDGKLEYPTCAKR
notes: complement factor H, human; Used at 22.5 ug/ml; also called FH; WT FH; source: bought: Complement Technology Inc
